Source: the supplement of paper PMC12636428

tested on: Saccharomyces cerevisiae; experiment: transcriptional activation domain activity (GFP:mCherry ratio, weighted mean of sorted bins, harmonized to initial dataset scale) (arbitrary fluorescence ratio units); higher = stronger transcriptional activation; conditions: beta-estradiol 1 µM; induction time 4 h
Protocol: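 53-aa protein tiles (fungal proteins plus yeast TF control tiles) fused C-terminally to a DBD-estrogen-binding domain-mCherry synthetic TF, integrated in S. cerevisiae (URA3 locus) with a GFP reporter. Cells were induced with 1 uM beta-estradiol for 4 h at 30 C, FACS-sorted into 8 bins by GFP:mCherry ratio and barcodes sequenced. Activity is the read-weighted mean bin fluorescence (GFP:mCherry), averaged over barcodes (median 12); tiles under 50 reads were discarded. New active-learning values were harmonized by linear fit onto the scale of the initial (Hummel et al.) dataset. The assay saturates at low and high signal.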

Sequence | transcriptional activation domain activity
TAVLMQLINLTVFICLASFGSLVFATWLPLIFQYYAIHLRDLLLHDASLIVNW | 39100
GIMILCCTLVVLTRLMGHRILPYTYFTSCLLMQIDFILGMIWDMDPFKVRRFC | 44600
IRLLFVWIVCTRIVLASRSACGRCYRSYLAMRSRSGWRWVSRRTAAVLVLRWC | 61500
LQLYLSSHHREMLVDIWDRLWPWMVFFHVNRGCIADPFMLRPHPCFNLLHFIV | 65600
VILLPLSFSLWYCLLFAYGILVSLYLLTLKNPTEINFLGFYIWKYENAFWVLM | 60100
AAMLLQRVDPNILGNAANVDKTLIHSMAWCLAKIMLFFDPSYITGLLQAYFKL | 46300
YLTRHVRLFGKLFRRMQQLHATRFVTLPLSSDLILYYWSKVVQASTALPEFIA | 51600
MYLFFFFFFFGWVLSLLLYVFFGLGIIGIGIVLFVFVLAFFFLFLGGIFFCGL | 43900
NIFVLHWLPSLSIASLFHTSSSSSPLLAQFFALFRSFFLSIFLFSIVYILLLF | 72200
SSCAPIPMVDFDINESNMVMGNYFDDFASFMDNVPIPNSVFSPSYQPLFAFLP | 114000
KKGRRKENGEGGEEKGKGAGGRGEGEEAGRRSRIKGVGGKRRGAGRRRGRREG | 17100
FSMTVGFTTAFSFLFLGYPTWGTRLWSFLPFWIGFYNLFVFLSKLDPIWAILF | 48800
TCRHSSPHVWWLIFGVLCIMYMMVLEVLLLGFVVLVLAPLVFIFWNLFLICIG | 52700
RLHTLRMPISWPLLGLARRRLASLRTFAVWIKPRHSSLTAAERLAFTQFLAAH | 79000
MDTSNSWFDASKVQSLNFDLQTNSYYSNARGSDPSSYAIEGEYKTLATDDLGN | 14200
DAESDNEEGAAGAADKKKKKKKKGASTAATSTPAEDEAAAAKGKKKPAAPLAA | 53700
GELRLPELQAIGISGGMSLLQDAVFMDGRPEASPLFKIIHLLKRASHWKLGRS | 46300
LDKVADPDYHPAVENSDVEEVMAAWRKTVREEALGVVEAGGGNVPGRGRVEVK | 48000
FFPSFSFSFSSFSFLLFISSSYSFFLFFPSSYSFFLFFFFYLIPYLLDFFPFL | 50500
VVLASSPSSQTTSSTSVVLIFGSDDKRVKEVGEGLKAKLDMRGGGKGTRWSGK | 14200
KLFFNLSILTLCAIMTLSVVVAFLFVTGCDPFYGYRGILFGFRILLTDIFSNM | 31400

Sequence | transcriptional activation domain activity
MKFLPFRFADLQANNFILFYFLYLMLACYLYPICIYTGKLFVIFPFIFLFFVP | 55000
EIKEATGEEHQEEQEDAIDSKEKVVMQSCPEVSLRRIRRLLRKHKGDPNKVID | 27300
VTFILALLVRLRRNLPLYSWMHWLHRHIDTLSSYDGISARPAWALFFIRLVWY | 74400
NGPGTCVVLVLITYIRRMLGLRYSQVIYVESFARVKKLSLSGKLLKPFVDKFV | 54600
FPFFLSSLFFFLPFFSFFPFFLSSLFLLLFFSFSSSSYQTFSLREQFFHLFFT | 43500
MPSITLAWPDRAYFYSLLVVSLLSSKLLHVFSHLTAIPIFLFLLYFPTFLFLD | 72500
SFSLLALSFFFLHVLFSLIIAPCVWFWFFSWLWFWLDLSSPRTYCIHIWLIHP | 39300
DLARSQKFILCSIKHWGSYLFLFFSCRSFNLFFNHSYFSFCLNISFFLCSVFL | 77800
VADVMLQRSTLVIGYCLVITIICCSVFLLYSMDFLSSCISFIWIGMVTLMICL | 41500
MISLVYTGVDGEFGMLFGFGFWFCFLMGRRFTVFVFVFLDMFWGHVFCFVCIS | 45600
WSFLSFSFLPFPLSSFLLLSYPPPSFFLLPPSPFFFAVLLHLFTLLLFSLLLL | 63900
MCYIIIVRWKRVWISCSCLAVIPVCPSIIPLLSILILSSLFFPFNPIFPIHGI | 34100
SNTLSLALYTLIEHIGMQRLEYANNSLVMLLKLIHNIILSLKNLRLFFNFFVT | 41900
CMIFGRWACGPALLAVIYAILGVGFAFALVVTRSFASKSYGDRLQFRLRHFFF | 39600
KLTLADLAPSPMAYRLWMFISGLYSLVDPFVRPLVRTYFAACLRLLIRWVPGI | 59400
MAIDIFFCLAVHIPTCVNLWGHVRTILYVQLVTVMYPSHFLFYFLFLLFYFFL | 34200
ATKTKAATTKKAAVPKKAAAKPAPKKAVAAAKPKANAGRPRKTVAAAAGPAPA | 42000
VVLGWILGKECMTLYFDTFQIALLFVSVLLVNYLIQDGKSHWLEGVLLVCSYL | 37400
SGGKTVLQGAFAGESGRISSGGPFGHGRGKEGQEQAIDNGRQRIARLAHGLRL | 23600
FFHVTIRVASQSCGIAFGILGFSNFPVFLAYLILGAEGYFSLVLCAFRFLISW | 75000
MLVICLLDLLLSIMRCKRNLIQFILVCTKDGFCVGLMTKSYKRSLLVKRLFCT | 39300

Sequence | transcriptional activation domain activity
ADNNDDEDQDEEEATPAPKPRGGRAPKAAAAATKKSAAAKKAPATRGRKKIIE | 33500
VLYPLWPLKMRQGVYYLSWGFLCLLGLFFLMAIFRVILFCITYFVVSPGLWLF | 34400
GAGGAAGGAGAGAGTAATGGNAAGGKASATKPAAGAKSSPAAAAAAAGTRLTG | 7150
LIALPCLMAFATICFAFVAWKLYGEFAWTIYKHISADLRLKRRYLTYQIYIAL | 50200
KLGLGPTYGIMLALLVSHGIVCCFKTSILARLNVYYVILNLGTLIALSVALLV | 50600
MMSGGMAYQVLFLYLLGYRLFYPRYFLFHSMFLFFIYCYMRCCPFRFTTILID | 58000
YIPVNYFLVVLYSNKEYPGLYKEIEKGLILLYHICTIRNDGTMFLNMKLYKNK | 36000
MPSAYHLGITPFGVHQWDINLRTLQRYLFFLYCCWIIWGILVLLLKVIILLQY | 39700
VVDYHTTYRRMIIVCLQSVLGLFRDMVEQFLGVIYTIYVLIRVFVVFPVWVIY | 61200
HSPEAANAALRAMDGHSLEGHALKIQGSHRGADAAEERRKEDAAKKATGTKIL | 44000
QAAAPAEKPATAAAGEAEKDGAAARGASTRGRGRGRGRGGRGGATAARRPRAD | 46200
GKGHYVTFSFVMADIILGMSAPMLRICVCHCVPQRQRKSNIILLQIILLFYER | 54500
MFCLRSWIPVLFFLLRTHASPIYLVLFISATYFLNRPCVYCSLLLFILVVALF | 61100
MFGFSLFFLFCFSVIVGFILFTLFFDYSPLSISLSCSVYCIMLCLSLFFLVFF | 34200
DEDDDDDDNDDADADDEPARRPKKSKSSQKSRSKKPAAKRAKVNGTTPAAAHS | 20000
FVCVASAIGGVGYLLLLTVAENVHVRYFATFCIVSGTYTTIGIVIAWFAHNLG | 48700
WIPFTLSIIVVEIPYLLFFSTSLLCGIYWTAGLSNTPDAVGYFYLMIFFFIFW | 61600
TPLLLFFWCLCWFLSRSWYVYCFCYLNDWYNKVMMLWNLFHHHRFLLLYTRGL | 35200
EAEIGVAAEDKISPQKARRKAKVEKEDGKAEEGAEGQKTTKRRRKTKEEKEEE | 14900
